Assay results: the emibetuzumab library of Makowski et al. (2022)

B1: VH:VL chains; a variant is named by its letters at X, in order (parent)
chain 1: QVQLVQSGAEVKKPGASVKVSCKASGYTFTDYXMHWVRQAPGQGLEWMGXVNPNXXXTTYNQKFEGRVTMTTDTSTSTAYMELRSLRSDDTAVYYCARXNXLDXWGQGTTVTVSS
chain 2: DIQMTQSPSSLSASVGDRVTITCSVSSSVSSIYLHWYQQKPGKAPKLLIYSTSNLASGVPSRFSGSGSGTDFTLTISSLQPEDFATYYCQVYSGYPLTFGGGTKVEIK

Variants of: B1
Assay: yeast display scFab, FACS + sequencing
In short: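 The non-specific binding call was based on sorted and sequenced yeast displaying a heavy-chain CDR mutant scFab library. Labelling used anti-Myc with biotinylated ovalbumin (260 μg/mL in PBSB, 3 h, room temperature) or soluble membrane proteins (130 μg/mL, 20 min on ice), and FACS collected the top 25% and bottom 10% of binders in two replicates. Positive meant present in ≥3 of 4 pooled positive samples and in no negatives, and negative meant the converse.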

| Variant | non-specific binding call |
| --- | --- |
| FRGRGYAV | binds |
| FRGRGFSV | binds |
| FRGRGFSA | binds |
| YRGRGYGS | binds |
| YRGRGYGA | binds |
| YRGRGYGF | binds |
| SRGRGSSS | binds |
| SRKGAASD | binds |
| VRGRSDWV | no binding |
| VRGRSDVF | no binding |
| YRGRTSLD | binds |
| VRGRSSVV | no binding |
| VRGTGDWD | no binding |
| YRKGGAVD | binds |
| YRKGGAVV | binds |
| VRGTGAVY | binds |
| YRGRDVGY | binds |
| FRGRGSSD | binds |
| FRGRGSSA | binds |
| FRGRGSSY | binds |
| FRGRGDLS | binds |
| FRGRDFVA | binds |
| FRGRDFVS | binds |
| YRGRGYWV | binds |

| Variant | non-specific binding call |
| --- | --- |
| YRGRGYWA | binds |
| YRGRGYWY | binds |
| YRGTGSVD | binds |
| VRGRGYGV | binds |
| FRGRSYVD | binds |
| YRGRGFGS | binds |
| YRGRGFGY | binds |
| YRGRGFGF | binds |
| YRGRGFGV | binds |
| FRGRDFLF | binds |
| FRGRDFLD | binds |
| FRGRGFVA | binds |
| YRGRGYAY | binds |
| YRGRGYAA | binds |
| YRKGAALA | binds |
| FRGRGDWV | no binding |
| YRGRDYGV | binds |
| FRGRDYAA | binds |
| YRGRGAVF | binds |
| FRGRDSVA | binds |
| FRGRDFAD | binds |
| YRGRSSSV | binds |
| FRGRDVVV | binds |
| ARGRSDAV | no binding |

| Variant | non-specific binding call |
| --- | --- |
| YRGRSSLY | binds |
| YRKGDSLD | binds |
| FRGRGAWF | binds |
| FRGRGAWS | binds |
| FRGRGAWV | binds |
| FRGRGAWD | binds |
| VRGRGDLA | no binding |
| YRGRGYSV | binds |
| SRGRGSLS | binds |
| YRGRDSAS | no binding |
| YRKGGAWF | binds |
| YRKGGAWV | binds |
| YRGRSSAA | binds |
| YRGRSSWS | binds |
| YRGRSSWD | binds |
| YRKEAAAA | binds |
| VRGRDFGV | binds |
| YRGRSFAV | binds |
| FRKGGAGS | binds |
| YRKEGAAA | binds |
| YRGRGFAS | binds |
| YRGRGFAD | binds |
| YRGRGFAY | binds |
| YRGRGVWV | binds |

| Variant | non-specific binding call |
| --- | --- |
| FRGRGALF | binds |
| FRGRGALS | binds |
| FRGRGALY | binds |
| FRGRGALA | binds |
| SRGRGAWS | binds |
| SRGRGAWF | binds |
| SRGRGAWD | binds |
| SRGRGAWA | binds |
| SRGRGAWY | binds |
| YRKENYGD | binds |
| FRGTGSGD | binds |
| YRKGGAAV | binds |
| YRKGGAAS | binds |
| YRKGGAAY | binds |
| DRGRGDWV | no binding |
| SRGRGAVD | binds |
| SRGRGAVS | binds |
| YRGRSFGV | binds |
| FRGRSSGV | binds |
| FRGRGASD | binds |
| FRGRGASV | binds |
| SRGRGSVD | binds |
| YRGRGFWF | binds |
| YRKGAASD | binds |

| Variant | non-specific binding call |
| --- | --- |
| ARGRSDVA | no binding |
| YRKGASVD | binds |
| YRGRTAAD | binds |
| YRGRTAAV | binds |
| YRGRTAAA | binds |
| YRGRTAAY | binds |
| YRGRTAAF | binds |
| FRGRGAVY | binds |
| FRGRSSVA | binds |
| SRGRGYSV | binds |
| YRGTGAGV | binds |
| DRGRGSAD | binds |
| SRGRGAGF | binds |
| FRGRGDVV | binds |
| FRGRGDVD | binds |
| VRGTGSGA | binds |
| FRKGDASD | binds |
| ARGRGSAA | binds |
| VRGRGVAV | binds |
| FRGRGVGD | binds |
| FRGRGVGA | binds |
| YRGRGASF | binds |
| YRGRGSSF | binds |
| YRGRDSSS | binds |

| Variant | non-specific binding call |
| --- | --- |
| YRGRTAGV | binds |
| YRGRGAWF | binds |
| FRGRGSLV | binds |
| FRGRGSLS | binds |
| FRGRGSLF | binds |
| FRGRDFSA | binds |
| SRKEGAAY | no binding |
| YRKGDSGD | binds |
| DRGRDSSA | no binding |
| YRGRGVSS | binds |
| YRGRGVSD | binds |
| FRGRGFGV | binds |
| YRGRGDSV | no binding |
| YRGRSAWV | binds |
| YRGRSAWD | binds |
| YRGRSAWF | binds |
| ARGRGSVA | binds |
| VRGRGFVV | binds |
| YRGRDFVD | binds |
| VRGTGYAS | binds |
| YRGRSAGY | binds |
| YRGRSAGA | binds |
| YRGRSAGV | binds |
| YRGRSAGS | binds |

| Variant | non-specific binding call |
| --- | --- |
| FRGRGSAA | binds |
| FRGRGSAV | binds |
| FRGRGSAF | binds |
| FRGRGSAD | binds |
| FRGRGSAY | binds |
| SRGRGYGD | binds |
| SRGRGVLV | binds |
| FRGRGAGS | binds |
| FRGRGAGA | binds |
| SRGRGSGA | binds |
| YRGRGVAV | binds |
| YRGRGVAA | binds |
| YRGRSASV | binds |
| YRGRSASY | binds |
| YRGRSASS | binds |
| FRGTGSWA | binds |
| VRGRDYGD | binds |
| VRGRGALS | binds |
| VRGRGALF | binds |
| ARGRGAWV | binds |
| FRGRDYGY | binds |
| FRGRDYGS | binds |
| FRGRDYGA | binds |
| FRGRDYGD | binds |

| Variant | non-specific binding call |
| --- | --- |
| FRGRDYGF | binds |
| FRGRDVAV | binds |
| FRGRGSWV | binds |
| FRGRGSWS | binds |
| YRGRGVLF | binds |
| YRGRGSWY | binds |
| FRGRGYWV | binds |
| DRGRSDVA | no binding |
| FRGTSFGD chain 1 T58I | binds |
| VRGRSSGS | binds |
| YRGRSALA | binds |
| VRGRSAWS | no binding |
| YRGRSAAY | binds |
| YRKEAAWV | binds |
| VRGRGVGY | binds |
| YRGRGVVD | binds |
| YRGRGVVY | binds |
| VRGTGSWD | binds |
| FRGRGFLS | binds |
| VRGTGSAD | binds |
| VRGRGFLD | binds |
| VRGTDAGV | no binding |
| VRGRGYAA | binds |
| YRGRGSAF | binds |

| Variant | non-specific binding call |
| --- | --- |
| YRGRGSAY | binds |
| FRGRDSGY | binds |
| FRKAAVAV | binds |
| FRGRDFGS | binds |
| VRGTDAVV | no binding |
| FRGRGSVV | binds |
| FRGRGSVD | binds |
| FRGRGSVY | binds |
| FRGRGSVF | binds |
| FRGRGSVS | binds |
| YRGRDSVS | binds |
| YRGRGFSD | binds |
| YRGRGFSA | binds |
| DRGRDFGV | no binding |
| VRGTGFGA | binds |
| YRKESAVY | binds |
| FRGRGDGY | binds |
| FRGRGDGD | binds |
| YRGRGFVY | binds |
| YRGRGFVD | binds |
| YRGRGFVA | binds |
| YRGRGFVV | binds |
| YRKGAAVV | binds |
| VRGRGFAA | binds |

| Variant | non-specific binding call |
| --- | --- |
| YRKGASAF | binds |
| VRGRGVSY | binds |
| DRGRGDVV | no binding |
| FRGRGYGA | binds |
| VRGTGVAV | binds |
| ARGRGSSS | binds |
| FRGRSSLA | binds |
| YRGRDSWD | binds |
| FRGRGAAY | binds |
| FRGRGAAS | binds |
| SRGRGFAA | binds |
| FRGRSSAF | binds |
| FRGRSSAA | binds |
| SRGRGVGA | binds |
| FRGRDSSF | binds |
| YRGRGVGS | binds |
| YRGRGVGD | binds |
| YRGRGVGY | binds |
| YRGRGVGA | binds |
| YRGRGVGF | binds |
| FRGTGFVD | binds |
| ARGRGAAS | binds |
| ARGRGAAD | binds |
| YRGRGSVY | binds |

| Variant | non-specific binding call |
| --- | --- |
| SRGRGSWD | binds |
| YRGRGALS | binds |
| YRGRGALF | binds |
| FRGRDSWS | binds |
| FRKGGAAA | binds |
| YRKGGAGF | binds |
| YRKGGAGS | binds |
| VRGRSSLF | binds |
| FRGRGSGF | binds |
| FRGRGSGV | binds |
| YRGRGFLV | binds |
| YRGRGYVS | binds |
| YRKGDAGD | binds |
| SRGRGFVA | binds |
| FRGRGYVV | binds |
| FRGRGYVA | binds |
| VRGRSSAA | binds |
